Laboratory results from patent publication US20180201951A1.

Biological target: interleukin 1 receptor 1 (Il1r1), murine (mouse) (UniProt P13504)
Test: cell-based or functional assay

Chain of UniProt P13504 (P13504 20-576): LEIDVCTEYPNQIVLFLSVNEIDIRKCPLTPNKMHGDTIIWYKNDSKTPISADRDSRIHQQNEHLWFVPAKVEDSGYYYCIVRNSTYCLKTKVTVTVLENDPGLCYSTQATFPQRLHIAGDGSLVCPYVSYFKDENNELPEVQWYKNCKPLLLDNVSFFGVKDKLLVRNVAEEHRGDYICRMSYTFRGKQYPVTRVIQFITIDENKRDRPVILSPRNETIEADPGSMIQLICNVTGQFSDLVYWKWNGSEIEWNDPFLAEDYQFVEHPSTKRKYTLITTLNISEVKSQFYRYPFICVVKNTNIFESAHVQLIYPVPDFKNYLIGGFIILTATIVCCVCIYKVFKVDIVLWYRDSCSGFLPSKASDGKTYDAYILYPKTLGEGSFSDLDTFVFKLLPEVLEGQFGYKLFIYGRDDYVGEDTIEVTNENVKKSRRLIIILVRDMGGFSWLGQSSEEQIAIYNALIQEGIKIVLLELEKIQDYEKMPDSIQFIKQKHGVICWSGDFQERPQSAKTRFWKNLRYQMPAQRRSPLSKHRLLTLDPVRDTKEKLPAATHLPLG

- NF-κB transcriptional activity (luciferase reporter), fold induction after IL-1α stimulation of Il1r1+/- cells: 4.8 fold
- NF-κB transcriptional activity (luciferase reporter), fold induction after IL-1α stimulation of wild-type (Il1r1+/+) cells: 6.3 fold
Substance: IL-1α (ligand)
